B1: humanized ICR62 antibody I-HHB / I-KC (not glycoengineered) (antibody, human IgG1, V domains shown)
VH: QVQLVQSGAEVKKPGSSVKVSCKGSGFTFTDYKIHWVRQAPGQGLEWMGYFNPNSGYSTYAQKFQGRVTITADKSTSTAYMELSSLRSEDTAVYYCARLSPGGYYVMDAWGQGTTVTVSS
VL: DIQMTQSPSSLSASVGDRVTITCRASQGINNYLNWYQQKPGKAPKRLIYNTNNLQTGVPSRFSGSGSGTEFTLTISSLQPEDFATYYCLQHNSFPTFGQGTKLEIKR
notes: also called I-HHB/KC
B2: I-HHC heavy chain combined with the chimeric ICR62 light chain (rVL) (antibody, human IgG1, V domains shown)
VH: QVQLVQSGAEVKKPGSSVKVSCKGSGFTFTDYKIHWVRQAPGQGLEWMGYFNPNSGYSTYNEKFKSRVTITADKSTSTAYMELSSLRSEDTAVYYCARLSPGGYYVMDAWGQGTTVTVSS
VL: DIQMTQSPSFLSASVGDRVTINCKASQNINNYLNWYQQKLGEAPKRLIYNTNNLQTGIPSRFSGSGSGTDYTLTISSLQPEDFATYFCLQHNSFPTFGAGTKLELKR
notes: also called I-HHC / rVL
B3: humanized ICR62 antibody I-HLA2 / I-KC (antibody, human IgG1, V domains shown)
VH: QVQLVQSGAEVKKPGASVKVSCKASGFTFTDYYMHWVRQAPGQGLEWMGWINPNSGYSTYNEKFQGQVTISADKSISTAYLQWSSLKASDTAMYYCARLSPGGYYVMDAWGQGTTVTVSS
VL: DIQMTQSPSSLSASVGDRVTITCRASQGINNYLNWYQQKPGKAPKRLIYNTNNLQTGVPSRFSGSGSGTEFTLTISSLQPEDFATYYCLQHNSFPTFGQGTKLEIKR
B4: humanized ICR62 antibody I-HLA / I-KA (antibody, human IgG1, V domains shown)
VH: QVQLVQSGAEVKKPGASVKVSCKASGFTFTDYYMHWVRQAPGQGLEWMGWINPNSGYSTYAQKFQGRVTMTADTSISTAYMELSRLRSDDTAVYYCARLSPGGYYVMDAWGQGTTVTVSS
VL: DIQMTQSPSSLSASVGDRVTITCRASQGINNYLNWYQQKPGKAPKRLIYNTNNLQTGVPSRFSGSGSGTEYTLTISSLQPEDFATYYCLQHNSFPTFGQGTKLEIKR
B5: humanized ICR62 antibody I-HLA4 / I-KC (antibody, human IgG1, V domains shown)
VH: QVQLVQSGAEVKKPGASVKVSCKASGYTFTDYYMHWVRQAPGQGLEWMGWINPNSGYSTYNEKFQGQVTISADKSISTAYLQWSSLKASDTAMYYCARLSPGGYYVMDAWGQGTTVTVSS
VL: DIQMTQSPSSLSASVGDRVTITCRASQGINNYLNWYQQKPGKAPKRLIYNTNNLQTGVPSRFSGSGSGTEFTLTISSLQPEDFATYYCLQHNSFPTFGQGTKLEIKR
B6: humanized ICR62 antibody I-HHG / I-KC (antibody, human IgG1, V domains shown)
VH: QVQLVQSGAEVKKPGSSVKVSCKGSGFTFTDYKIHWVRQAPGQGLEWMGYFNPNSGYATYAQKFQGRVTITADKSTSTAYMELSSLRSEDTAVYYCARLSPGGYYVMDAWGQGTTVTVSS
VL: DIQMTQSPSSLSASVGDRVTITCRASQGINNYLNWYQQKPGKAPKRLIYNTNNLQTGVPSRFSGSGSGTEFTLTISSLQPEDFATYYCLQHNSFPTFGQGTKLEIKR
B7: humanized ICR62 antibody I-HLA1 / I-KC (antibody, human IgG1, V domains shown)
VH: QVQLVQSGAEVKKPGASVKVSCKASGFTFTDYYMHWVRQAPGQGLEWMGWINPNSGYSTYSPSFQGQVTISADKSISTAYLQWSSLKASDTAMYYCARLSPGGYYVMDAWGQGTTVTVSS
VL: DIQMTQSPSSLSASVGDRVTITCRASQGINNYLNWYQQKPGKAPKRLIYNTNNLQTGVPSRFSGSGSGTEFTLTISSLQPEDFATYYCLQHNSFPTFGQGTKLEIKR
B8: humanized ICR62 antibody I-HLA / I-KB (antibody, human IgG1, V domains shown)
VH: QVQLVQSGAEVKKPGASVKVSCKASGFTFTDYYMHWVRQAPGQGLEWMGWINPNSGYSTYAQKFQGRVTMTADTSISTAYMELSRLRSDDTAVYYCARLSPGGYYVMDAWGQGTTVTVSS
VL: DIQMTQSPSSLSASVGDRVTITCKASQNINNYLNWYQQKPGKAPKRLIYNTNNLQTGVPSRFSGSGSGTEYTLTISSLQPEDFATYYCLQHNSFPTFGQGTKLEIKR
B9: humanized ICR62 antibody I-HHF / I-KC (antibody, human IgG1, V domains shown)
VH: QVQLVQSGAEVKKPGSSVKVSCKGSGFTFTDYKIHWVRQAPGQGLEWMGYFNPNSGYSNYAQKFQGRVTITADKSTSTAYMELSSLRSEDTAVYYCARLSPGGYYVMDAWGQGTTVTVSS
VL: DIQMTQSPSSLSASVGDRVTITCRASQGINNYLNWYQQKPGKAPKRLIYNTNNLQTGVPSRFSGSGSGTEFTLTISSLQPEDFATYYCLQHNSFPTFGQGTKLEIKR
B10: humanized ICR62 antibody I-HLA7 / I-KC (antibody, human IgG1, V domains shown)
VH: QMQLVQSGPEVKKPGTSVKVSCKASGFTFTDYKIHWVRQARGQRLEWIGWINPNSGYSTYNEKFQGQVTISADKSISTAYLQWSSLKASDTAMYYCARLSPGGYYVMDAWGQGTTVTVSS
VL: DIQMTQSPSSLSASVGDRVTITCRASQGINNYLNWYQQKPGKAPKRLIYNTNNLQTGVPSRFSGSGSGTEFTLTISSLQPEDFATYYCLQHNSFPTFGQGTKLEIKR
B11: humanized ICR62 antibody I-HLA5 / I-KC (antibody, human IgG1, V domains shown)
VH: QMQLVQSGPEVKKPGTSVKVSCKASGFTFTDYYMHWVRQAPGQGLEWMGWINPNSGYSTYSPSFQGQVTISADKSISTAYLQWSSLKASDTAMYYCARLSPGGYYVMDAWGQGTTVTVSS
VL: DIQMTQSPSSLSASVGDRVTITCRASQGINNYLNWYQQKPGKAPKRLIYNTNNLQTGVPSRFSGSGSGTEFTLTISSLQPEDFATYYCLQHNSFPTFGQGTKLEIKR
B12: humanized ICR62 antibody I-HLA8 / I-KC (antibody, human IgG1, V domains shown)
VH: QMQLVQSGPEVKKPGTSVKVSCKASGFTFTDYKIHWVRQAPGQGLEWMGYFNPNSGYSTYAQKFQGRVTITADKSTSTAYMELSSLRSEDTAVYYCARLSPGGYYVMDAWGQGTTVTVSS
VL: DIQMTQSPSSLSASVGDRVTITCRASQGINNYLNWYQQKPGKAPKRLIYNTNNLQTGVPSRFSGSGSGTEFTLTISSLQPEDFATYYCLQHNSFPTFGQGTKLEIKR
B13: humanized ICR62 antibody I-HHC / I-KB (antibody, human IgG1, V domains shown)
VH: QVQLVQSGAEVKKPGSSVKVSCKGSGFTFTDYKIHWVRQAPGQGLEWMGYFNPNSGYSTYNEKFKSRVTITADKSTSTAYMELSSLRSEDTAVYYCARLSPGGYYVMDAWGQGTTVTVSS
VL: DIQMTQSPSSLSASVGDRVTITCKASQNINNYLNWYQQKPGKAPKRLIYNTNNLQTGVPSRFSGSGSGTEYTLTISSLQPEDFATYYCLQHNSFPTFGQGTKLEIKR
B14: humanized ICR62 antibody I-HLA6 / I-KC (antibody, human IgG1, V domains shown)
VH: QMQLVQSGPEVKKPGTSVKVSCKASGFTFTDYYMHWVRQAPGQGLEWMGWINPNSGYSTYNEKFQGQVTISADKSISTAYLQWSSLKASDTAMYYCARLSPGGYYVMDAWGQGTTVTVSS
VL: DIQMTQSPSSLSASVGDRVTITCRASQGINNYLNWYQQKPGKAPKRLIYNTNNLQTGVPSRFSGSGSGTEFTLTISSLQPEDFATYYCLQHNSFPTFGQGTKLEIKR
B15: humanized ICR62 antibody I-HLA9 / I-KC (antibody, human IgG1, V domains shown)
VH: EVQLVQSGAEVKKPGESLKISCKGSGYSFTDYKIHWVRQAPGQGLEWMGYFNPNSGYSTYAQKFQGRVTITADKSTSTAYMELSSLRSEDTAVYYCARLSPGGYYVMDAWGQGTTVTVSS
VL: DIQMTQSPSSLSASVGDRVTITCRASQGINNYLNWYQQKPGKAPKRLIYNTNNLQTGVPSRFSGSGSGTEFTLTISSLQPEDFATYYCLQHNSFPTFGQGTKLEIKR
B16: humanized ICR62 antibody I-HLA3 / I-KC (antibody, human IgG1, V domains shown)
VH: QVQLVQSGAEVKKPGASVKVSCKASGYTFTDYYMHWVRQAPGQGLEWMGWINPNSGYSTYSPSFQGQVTISADKSISTAYLQWSSLKASDTAMYYCARLSPGGYYVMDAWGQGTTVTVSS
VL: DIQMTQSPSSLSASVGDRVTITCRASQGINNYLNWYQQKPGKAPKRLIYNTNNLQTGVPSRFSGSGSGTEFTLTISSLQPEDFATYYCLQHNSFPTFGQGTKLEIKR
B17: humanized ICR62 antibody I-HHD / I-KC1 (antibody, human IgG1, V domains shown)
VH: QVQLVQSGAEVKKPGSSVKVSCKASGFTFTDYKIHWVRQAPGQGLEWMGYFNPNSGYSTYAQKFQGRVTITADKSTSTAYMELSSLRSEDTAVYYCARLSPGGYYVMDAWGQGTTVTVSS
VL: DIQMTQSPSSLSASVGDRVTITCRASQGIRNYLNWYQQKPGKAPKRLIYNTNNLQTGVPSRFSGSGSGTEFTLTISSLQPEDFATYYCLQHNSFPTFGQGTKLEIKR
notes: also called I-KCl
B18: humanized ICR62 antibody I-HHD / I-KC2 (antibody, human IgG1, V domains shown)
VH: QVQLVQSGAEVKKPGSSVKVSCKASGFTFTDYKIHWVRQAPGQGLEWMGYFNPNSGYSTYAQKFQGRVTITADKSTSTAYMELSSLRSEDTAVYYCARLSPGGYYVMDAWGQGTTVTVSS
VL: DIQMTQSPSSLSASVGDRVTITCRASQGINNWLNWYQQKPGKAPKRLIYNTNNLQTGVPSRFSGSGSGTEFTLTISSLQPEDFATYYCLQHNSFPTFGQGTKLEIKR

Here are results for 18 molecules from patent US20110111461A1 (Hoffmann-La Roche, published 2011).

For orientation: EC50 means the midpoint of the concentration-response curve. A lower EC50 goes with a more potent agent.

One assay addresses T1, human epidermal growth factor receptor (EGFR) (human, UniProt P00533 25-1210).
T1 construct: whole, on cells; also called HER-1; ErbB1
Put plainly: flow cytometry on A431 cells. The method, then:
(§1) The purified, monomeric humanized antibody variants were tested for binding to human epidermal growth factor receptor (EGFR, also referred to in the literature as HER-1 or ErbB1) on the A431 human epidermal cell line, using a flow cytometry-based assay. 200,000 cells (e.g., from human A431 cell line) in 180 μl FACS buffer (PBS containing 2% FCS and 5 mM EDTA) were transferred to 5 ml polystyrene tubes and 20 μl 10 fold concentrated anti-EGFR antibody (primary antibody) samples (1-5000 ng/ml final concentration) or PBS only were added. After gently mixing the samples, the tubes were incubated at 4° C. for 30 min in the dark. Subsequently, samples were washed twice with FACS buffer and pelleted at 300×g for 3 min. Supernatant was aspirated off and cells were taken up in 50 μl FACS buffer and 2 μl secondary antibody (anti-Fc-specific F(ab′)2-FITC fragments (Jackson Immuno Research Laboratories, USA)) was added and the tubes were incubated at 4° C. for 30 min. Samples were washed twice with FACS buffer and taken up in 500 μl of FACS buffer for analysis by Flow Cytometry. Binding was determined by plotting the geometric mean fluorescence against the antibody concentrations.
Only the I-HHA has strongly diminished binding activity (see FIG. 2). […] In this experiment, either the light chain, the heavy chain or both chains simultaneously of the ch-ICR62 were replaced by the above mentioned humanized constructs.
On to B1, for which the binding result was “binds”.
Same read-out and setting: for B2 the value was “binds”.
With B3, the 50% effective concentration (EC50) is around 0.3 µg/mL.
As to B4, the binding result was “binds”.
Consider B5, for which the “EC50 fold increase relative to ch-ICR62, I-HLA1 and I-HLA2” value (shortened to “EC50 fold increase relative to ch-ICR62”) worked out at 2 fold.
Consider B6, for which the binding result is “binds”.
As for B7, the EC50 was around 0.3 µg/mL.
With B8, the binding result is given as “binds”.
Still for that read-out and setting: as for B9, the entry is “binds”; as for B10, “binds”.
For B11, the “EC50 fold increase relative to ch-ICR62” value was found to be 2 fold.
With B12, the “EC50 fold decrease relative to ch-ICR62” value turned out to be 2 fold.
As for B13, the binding result is “binds”.
In the case of B14, the “EC50 fold increase relative to ch-ICR62” value was found to be 2 fold.
In the case of B15, the binding result is listed as “binds”.
In the case of B16, the “EC50 fold increase relative to ch-ICR62” value turned out to be 2 fold.

Another assay has as its target T1, human epidermal growth factor receptor …. Put plainly: flow cytometry on A431 cells; light chain variants paired with I-HHD. The procedure: as §1
Each of the I-KC variant constructs (I-KCl to I-KC9) was paired with a heavy chain variable region comprising construct I-HHD (SEQ ID NO:16 and SEQ ID NO:15) and a binding assay performed according to the methods described in the previous examples. Constructs I-KCl to I-KC9 were compared to the I-KC construct (SEQ ID NO:46 and SEQ ID NO:45) for binding affinity to EGFR in A431 target cells (FIG. 29). […] Therefore, when paired with a chimeric (e.g., humanized) heavy chain construct specific for EGFR, the light chain can be entirely human (e.g., from a human light chain V gene sequence) and still retain specific binding for EGFR. In particular, CDR2 and CDR3 can be entirely in human germline form.
Background: A flow cytometer gives signals particle by particle.
Take B17: the binding result is given as “binds”.
On the same count and under the same terms, for B18 the value was “binds”.
